Measurements taken from a protein production outcome set (Wang et al. 2014).

Assay: label from the status in PepcDB records

Row | Sequence | protein production
1 | MVKLDRYIGVTVFVAILAVLGVILGLALLFAFIDELNDISASYGIGDALRFIFLTAPRRAYDMLPMAALIGCLVGLGTLASNSELTIMRAAGVSLSRIVWAVMKPMLVLMLAGILVGEYVAPWTENIAQSGRALAQGGGDSQSSKRGLWHRQGREYIHINAVQPNGVLYGVTRYRFDEQRGLESASFAKRARFETDHWQLEEVTTTLLHPREKRSEVVKLPTERWDAQLSPQLLNTVVMEPEALSISGLWQYIHYLADQGLNNNRYWLAFWTKVLQPLVTAALVLMAISFIFGPLRSVTLGQRIFTGVLVGFVFRIAQDLLGPSSLVFDFPPLLAVVIPASICALAGVWLLRRAG | failed
2 | EKAEDCWELQISPELLAHGRQKILDLLNEGSARDLRSLQRIGPKKAQLIVGWRELHGPFSQVEDLERVEGITGKQMESFLKANILGLAAGQ | not failed
3 | MTFSAFFQTIDDYSFRPMIPSFIRLLRFTGLFIAIFAPALYIAMISFHYEVIPLKLLLTIGESRAKIPFPPILEALLMELVLEMLREAAVRLPGPVGQTIGVVGGIVIGQAAVQAGIVSNVMVIVVSITAVASFIIPNLEMSAGIRLLRFPMMIIASLFGVIGIMVGMAIIIIHILSMESLGVPYGSPFSPLFASDLKDILIRLPWKIMKKRPLSLNLKQENRQSDIEGTEEDK | failed
4 | MNIILLSGKKSEAQPGDGEYPEYLCEYNGKPLIHTLIDNCAALEPRRIICTFSNDDVIGLHLRNMVQQMHPSASVLPVHNITQGAACTALLASGQIDNDDELLILSVSDFLDIELREVLRVFREANEDAGVVIFNSLHPRYSFARLDSDQRVIEAAEKNPISPHAIAGMYWFKSGSLFVSAAKEMIRKDARVNDHFYIAPALNELVLLHKKIGAYRIEPRQYRPLKTQNQLHAFEMADIR | failed
5 | MTFFIFLLACSAAAATGIIFKPGAWYESLQKPAFTPPNWAFPVAWTTIYLLLAWAGYRLTLLPGSQTVLALWAAQIALNTLWTPVFFGANRIAAAMVILALLWIVVATMIVMALQLDIITGLILFPYLVWLSVAAALNFSILRHNR | failed
6 | MGHHHHHHSHMAFPSDATAEQGPILTKHGKNPVMELNEKRRGLKYELISETGGSHDKRFVMEVEVDGQKFQGAGSNKKVAKAYAALAALEKLFPDTPLALDANK | failed
7 | MDKLEPLRINMRHGSILAVHFFIPGKPTICHQTARTLIRHIPFQCLLRVTSQNLDVGEFVKIYHEEKAEVKSSSLAKKIPKTSNLLASTSDKLELARAITTFKEEEIRHLAEPDDVDFVLTLDVADVGVSKIVIDVGSLIDLLFLSTLGENGK | failed
8 | MDKNTRVGKRKKRNKAMRIFWSVMAVILVAIGGFALYEYNTVKNAADTAYRSGGLGNAENGSKNSVISNSKPIAILLMGTDTGALGRTYKGRTDSIMVAVLNPKTKKTTLVSFERDQQVNLPDYPENSPSKLNAAYAYGNAKELAKVLKKYYNIPINAYVLINMGGLKTIVNKVVGVDIAPILSFSYEGYTFTKGKTTHMDGAKALAYSRMRYDDPEGDYGRQKRQRQVLSALLNKAESATTLLNSSFISSLSKQVQTDFTFSDMTSMAKRYLAATKDLKTDYTHGTSYMQDGVSYQKVSVSERQRISNLIRKTLGLKTKTVSTDSIDTSTSSSSSSSSTTTDSDTTGGAGNTAGPSDNGAAAGNGADSGTTGGYSAGNDQNNSTGY | failed
9 | MPAERDSSAAWAVCVYCASGPQHPELLGVAAELGEAIAERGWTLVWGGGRVSAMGAVASAARARGGRTVGVIPTVLMRREIADADADELIVSDTLHERKQIMEDRADAFIALPGGIGTLDEVLDAWTTGFLGLHAKPIVLLDPIGHYEGLWLWLSGLLDSGYITQAAMDRVVLVDKVGAALEACAPG | failed
10 | SSEAKKGHVLFFPYPLQGHINPMIQLAKRLSKKGITSTLIIASKDHREPYTSDDYSITVHTIHDGFFPHEHPHAKFVDLDRFHNSTSRSLTDFISSAKLSDNPPKALIYDPFMPFALDIAKDLDLYVVAYFTQPWLASLVYYHINEGTYDVPVDRHENPTLASFPGFPLLSQDDLPSFACEKGSYPLLHEFVVRQFSNLLQADCILCNTFDQLEPKVVKWMNDQWPVKNIGPVVPSKFLDNRLPEDKDYELENSKTEPDESVLKWLGNRPAKSVVYVAFGTLVALSEKQMKEIAMAISQTGYHFLWSVRESERSKLPSGFIEEAEEKDSGLVAKWVPQLEVLAHESIGCFVSHCGWNSTLEALCLGVPMVGVPQWTDQPTNAKFIEDVWKIGVRVRTDGEGLSSKEEIARCIVEVMEGERGKEIRKNVEKLKVLAREAISEGGSSDKKIDEFVALLT | failed
11 | DGQPVAMGDVGELVIGGVGLARYLDPVKDREKFSAELGWERAYRSGDHVRLCEDGLYFVGRIDDQVKIGGRRIELGEVEAHVAALPNVAQYAVVVRETAAGEKVLVAYVSPQVPDVDIDTSALDELPRAMVPRLVVLPEIPTTTSGKADKKALPWPLESAQVTGSDFTPTQQWLAQLWVDVLGVPVGDVD | failed
12 | MTIGRAKVYATLSKIFYHLFYDEAIPKDCREIIEKFGEIDFNLRSVLVRELRGSVLIKDMPQSLAEVYESVMKDFYERYGFQASELHADHIAVELAFMSKLVEREISLAQQMKEEELYKIRAAQHRFIKAHLQPLVKNLPSAPLLNFVRDFVREDAKYLYSSLVGEKNEGADNN | not failed
13 | MASGSPPSQPSPASGSGYVPGSVSAAFVTCPNEKVAKEIARAVVEKRLAACVNLIPQITSIYEWKGKIEEDSEVLMMIKTQSSLVPALTEFVRSVHPYEVAEVIALPVEQGNPPYLHWVHQVTESV | not failed
14 | MASVKLPWDLEEEILSRLPPRSLVRFRTVCKHWNGLFSDKRFVKKHLVRARPQFIFLTESKKMYSIEIDLGGTIEVREVPYDFHCQPMKKNFTTIMACDGLLFRDFWKQGVAVWNPWLRQVGWIEYEDKGFRFCGVGYDSCKPDKCYKILGYFNCTRRLSDSLQEGYYQAAIYECASQAFKFIDTPNPFNLWPNKDPLSVNGNLYWLAHNHPETLEYFIETFDFSMEIFKPFCLLPCRKDFGSNELVLAVFKEDRFSLLKQCFETTKIEIWVTKMKIDREEEVVWIKFMTLPTTNLPNLDDTYCCSSYFIFDKTIIMCCGDYKTGATCIYMVRGDMFKKIQINSGIFQFSYCVYLPNLISVPFESHQV | failed
15 | QKVKTIFPHTAGNNKTLLSFAQGDVLTLLIPEEKDGWLYGEHDTTKARGWFPSSYTKLL | not failed
16 | MDWDDEYSHNSFDLHCLLNSFPGDLEFEQIFSDIDEKIEQNAASIKHCIKEIQSEINKQCPGVQLQTTTDCFEWLTNYNYSTSESSFISHGDLIKFFKTLQDLLKNEQNQEEMTLDLLWDLSCHSSVSFPSTLSGTSFHFLSRTSLHSVEDNSSMDVKSMWDDIRLHLRRFLVSKLQSHNEINNSQQKILLKKQCLQQLLFLYPESEVIIKYQNIQNKLLANLLWNCFPSYNRDSNLDVIAHGYQSTMLKLYSVIKEDFNTLCEILAPSSMVKFIKETYLDTVTEEMAKFLENFCELQFRENAVRVVKTSKSSSKHRGAVHALG | not failed
17 | MKRSASLKEDVFLKSKVHFWTLEVLMVVAIIFICTKISFLFQPIGIFISTLFFPILIALFLYFIFNPVLVFLEEKKVPRNLAILLLYLFIITLTAVGVGVVVPTISQQLMDLVKNMPGYIKEGKLYIQDLSHHRLFEWLSTQNYVSIETIEKNAIEYLKDIPNTITSSATALFGIITNVALVIFTVPFILFYMFKDGHAFPGKAVSLLPESYREEGLRIIKETNETLSAYIQGQALVCIFVGAFTFIGYLIIDLPYAFVLGIIAAFTNIIPNLGPFIGAAPAVIVGLFVSPMQALYVIIIVTIVQQFESNIISPRIMSSKLNIHPLTIIILILGVGNFAGIIGMILAVPVYAVTKTVVSNLVRLFKTKRSNRK | failed
18 | MLDNAIPQGFEDAVELRRKNRETVVKYMNTKGQDRLRRHELFVEDGCGGLWTTDTGSPIVIRGKDKLAEHAVWSLKCFPDWEWYNIKVFETDDPNHFWVECDGHGKILFPGYPEGYYENHFLHSFELDDGKIKRNREFMNVFQQLRALSIPVPQIKREGIPT | not failed
19 | MHPVKALKQGVKNGTMPIIARFYGIIIKMFFNEHLPPHFHALYGEYNAIFNINTLEMIEGDMPLRARKLVVEWAENHQKELEIMWETKEFKQLPGLELEHHHHHH | not failed
20 | RLAHVSAASRELARALEPDAVMAVLAGILRERLGFYRVTVALVREGALVGHLTRRGEDLYWTEGRSRIRLPVATSPDPMAQAVRERRTRIVPREALPPHLAEGVGASVAYVPVLVEEEALGCVAVDHGPGGPPVTEEEVEYVELLAGVAGVALRNAQLYRERTALSLALAAERKRLS | failed
21 | LLLEIGLEEMPARFLNESMVQLGDKLTGWLKEKNITHGEVKLFNTPRRLAVFVKDVAEKQDDIKEEAKGPAKKIALDADGNWTKAAIGFSKGQGANVEDLYIKEVKGIEYVFVQKFQAGQETKSLLPELSGLITSLHFPKNMRWGNEDLRYIRPIKWIVALFGQDVIPFSITNVESGRTTQGHRFLGHEVSIESPSAYEEQLKGQHVIADPSVRKQMIQSQLETMAAENNWSIPVDEDLLDEVNHLVEYPTALYGSFESEFLSIPEEVLVTTMKEHQRYFPVKDKNGDLLPHFITVRNGNSHAIENVARGNEKVLRARLSDASFFYKEDQKLNIDANVKKLENIVFHEELGSLADKVRRVTSIAEKLAVRLQADEDTLKHVKRAAEISKFDLVTHMIYEFPELQGIMGEKYARMLGEDEAVAAAVNEHYMPRSAGGETPSTFTGAVVAMADKLDTIASFFSIGVIPTGSQDPYGLPRQASGIVAILLDRNWGISFEELLTFVQTDKENELLDFFTQRLKYVLNAEQIRHDVIDAVLESSELE | not failed
22 | MIDWPLAELLPHAGDMILIDQVLAFDEEQIRTRLEVRPGGLFNRPDGSLPAWVGVELMAQSVAAYAGCRARQQGLPVELGFLLGTRKFECNVEHFPLGSTLEIHALRSLEDDNGMGVFECHLSGPGITASARLNVFRPLEHHHHHH | failed
23 | MKNIFLTMSLGIGLLFPCKLHAQSQYPFQNTTLSTEERVDDLIKRMTLEEKIDLLSGYNDFYLHPCERLGIPAFKLADGPLGVASWGLFGRATAFPSALSLAASWNKNLAEKTGAMYAQEWRARGIHFLLAPGVNNYRASKGARNFEYFGEDPYLASEMVVPFIKAVQDGGVIATIKHFAANDQEFDRYTVSTEVSERALQEIYLPPFKAAVQKAGVKAVMTGYNLVNGVYCTENKHLIDILKKDWGFKGMLMSDWACTYSAENAANYGLDLEMGSNDWFTRKELLPLVKEGKVTEEVINDKVRRIYGACISMGFFDRPQQDTDIPTFNPQANQMALNTACEGIILLKNEQNTLPIHRPKVIAVIGPTANPAIVSDRIYNVNSIVYGGGGSSKVHPWYVVSALEGIRQEFPEATVLYTEGISNQFKPRLFRNSKFRTKEGKPGLEANYYALSSDTSATLSDKMIQQQAVAAGRTVSVNQSADRTIETDKEESGLILRRTDRTVNYEWWGYPFNESKLGNDYRVCWEGYVDVEKTDSIRFFVDAQGAYRLWIDGTLALDASQSQSFDVRNTAISAKKGDAKHIRLEFCNQRSTPAEIRMGYAYQSDIDFSEAKRLAAKADLVVFCAGLDGSIELEGRDRPFDLPYGQDMLIQELVKVNPKLIVAIHAGGGINMTRWIDQVPAVVHALYPGQEGGHALAHILSGKVNPSAKLPFTIEKRWEDSPACGHYDETRKEKKVYYTEGIFTGYRGYDQKGIEPLFPFGFGLSYTTFDYSGLNIRMTDKKQKQLVVSFTVTNTGQRDGYEVAQLYVRDMQSKEPRPLKELKGFDKVYLKAGESKQIEIGLSEDAFQYFNAKQNRWVFEKGEFEILVGASSKDIRLAEKIKM | failed
